Data: paper PMC2132943

Target: CCR5 chemokine receptor (human) (UniProt P51681)
Experiment: cross-linking

CCR5 chemokine receptor, P51681 1-352 (receptor; other documents disagree on this pair), sequence (P51681 whole entry): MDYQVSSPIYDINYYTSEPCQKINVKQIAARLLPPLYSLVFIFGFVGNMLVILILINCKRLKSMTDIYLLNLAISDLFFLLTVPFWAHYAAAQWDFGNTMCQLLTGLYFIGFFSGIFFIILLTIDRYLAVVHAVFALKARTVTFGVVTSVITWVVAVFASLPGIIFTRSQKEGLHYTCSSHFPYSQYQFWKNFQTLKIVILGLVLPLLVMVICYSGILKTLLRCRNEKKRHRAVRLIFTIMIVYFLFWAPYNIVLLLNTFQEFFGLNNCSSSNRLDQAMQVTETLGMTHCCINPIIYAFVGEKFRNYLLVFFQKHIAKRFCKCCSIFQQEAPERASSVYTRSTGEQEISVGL

stoichiometry N: 2
Substance: CCR5 chemokine receptor, P51681 1-352 (receptor; other documents disagree on this pair)
